Source: EP1728516A1

Assays:
Experiment in all cases: cell-based or functional assay
[1] = target: endogenous wild-type PLB of adult rabbit myocytes (rabbit) (UniProt P61015)
[2] = target: endogenous wild-type PLB of rat cardiac myocytes (rat) (UniProt P61016)
[3] = target: endogenous wild-type PLB of cardiac myocytes or SR (species not stated at these places) (Rattus norvegicus (Rat)) (UniProt P61016)

Sequence of UniProt P61015 (P61015 whole entry): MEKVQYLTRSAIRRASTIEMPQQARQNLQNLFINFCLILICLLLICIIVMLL

decrease in RT50 against the LacZ control [1]: 25%
increase in +dL/dt against the LacZ control [1]: 115%
increase of fractional shortening against the LacZ control [1]: 74%
lowering of the EC50 of SR Ca2+ uptake, adult rat myocytes [2]: 36%
decrease in RT50 after plasmid transfection of myocytes [3]: 43%
half-time for decay (RT50) of the indo 1 Ca2+ transient, neonatal myocytes (LacZ: 0.28 seconds) [3]: 0.2 s
half-time for decay (RT50) of the indo 1 Ca2+ transient, percent of LacZ [3]: 73%
Substance: PLB double point mutant K3E/R14E
